Consider one molecule from patent US6905818 (MAX PLANCK GESELLSCHAFT ZUR FORDERUNGDER WISSENSCHAFTEN, dated 2005).

This test deals with T1, LexA protein expressed from pBTM117c (UniProt P0A7C2 1-202).
T1 construct: range 1-220; also called strain x1a
T1 sequence (looked up): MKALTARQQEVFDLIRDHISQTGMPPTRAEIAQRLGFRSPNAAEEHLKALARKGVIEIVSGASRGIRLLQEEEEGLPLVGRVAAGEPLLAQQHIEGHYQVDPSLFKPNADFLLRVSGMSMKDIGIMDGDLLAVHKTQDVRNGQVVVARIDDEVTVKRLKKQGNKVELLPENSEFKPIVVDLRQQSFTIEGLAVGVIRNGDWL
The test can be described thus: yeast two-hybrid, growth on SD-leu-trp-his and β-galactosidase membrane assay. The method, then:
Two transformants from each transformation were investigated for the presence of protein—protein interactions by testing the ability of the yeast cells to grow on SD-leu-trp, SD-leu-trp-his, SD-leu+CAN and SD-trp+CHX plates and by the β-galactosidase membrane assay (Breeden and Nasmyth, 1985). […] After selection of the yeast strains harboring the different combinations of the two-hybrid plasmids on SD-leu+CAN and SD-trp+CHX the resulting strains were also analyzed by the β-galactosidase assay. After incubating the membrane containing all three strains on SD-trp+CHX medium only progeny of the yeast strain that originally harbored both the plasmids pBTM117c-HIP1 & pGAD427 yet which had lost the pGAD427 plasmid through counterselection turned blue after incubating in X-Gal solution. […] In comparison, the yeast strain harboring both the plasmids pBTM117c-SIM1 & pGAD427-ARNT is a positive clone that expresses interacting LexA and GAL4ad fusion proteins, because both the LexA and the Gal4ad fusion proteins are necessary for the activation of the reporter genes. […] With the membranes from the SD-leu+CAN plate false positive clones expressing an auto-activating GAL4ad-LexA fusion protein were also detected by the β-galactosidase assay.

B1: GAL4ad expressed from pGAD427 (other, yeast, UniProt P04386 768-881, looked up)
chain: ANFNQSGNIADSSLSFTFTNSSNGPNLITTQTNSQALSQPIASSNVHDNFMNNEITASKIDDGNNSKPLSPGWTDQTAYNAFGITTGMFNTTTMDDVYNYLFDDEDTPPNPKKE
notes: range 768-881; also called strain y1α
For the molecule B1, the binding result is “no binding”.
